Measurements: US20180118785A1 (University of Pennsylvania, published 2018)
Bridges are numbered along the chain shown (N, C = ends). [ ]: non-standard residue; d: D form. Bpa = N[C@@H](Cc1ccc(C(=O)c2ccccc2)cc1)C(=O)O; 1Nal = N[C@@H](Cc1cccc2ccccc12)C(=O)O; 2Nal = N[C@@H](Cc1ccc2ccccc2c1)C(=O)O; Igl = N[C@H](C(=O)O)C1Cc2ccccc2C1

B1: Ac-4Dht,9A-OH (peptide)
peptide: ICVXQDWGAHRCT
modifications: N-terminal acetyl; dihydrotryptophan (Dht) at position 4; free C-terminal acid (COOH); disulfide bond between the two Cys residues
B2: Ac-4Y,9A (peptide)
peptide: Ac-ICVYQDWGAHRCT-NH2
modifications: disulfide 2-12
SMILES: CC[C@H](C)[C@H](NC(C)=O)C(=O)N[C@H]1CSSC[C@@H](C(=O)N[C@H](C(N)=O)[C@@H](C)O)NC(=O)[C@H](CCCNC(=N)N)NC(=O)[C@H](Cc2c[nH]cn2)NC(=O)[C@H](C)NC(=O)CNC(=O)[C@H](Cc2c[nH]c3ccccc23)NC(=O)[C@H](CC(=O)O)NC(=O)[C@H](CCC(N)=O)NC(=O)[C@H](Cc2ccc(O)cc2)NC(=O)[C@H](C(C)C)NC1=O
B3: +G,4W,9A + AN-OH (peptide)
peptide: H-GICVWQDWGAHRCTAN-OH
modifications: disulfide 3-13
SMILES: CC[C@H](C)[C@H](NC(=O)CN)C(=O)N[C@H]1CSSC[C@@H](C(=O)N[C@H](C(=O)N[C@@H](C)C(=O)N[C@@H](CC(N)=O)C(=O)O)[C@@H](C)O)NC(=O)[C@H](CCCNC(=N)N)NC(=O)[C@H](Cc2c[nH]cn2)NC(=O)[C@H](C)NC(=O)CNC(=O)[C@H](Cc2c[nH]c3ccccc23)NC(=O)[C@H](CC(=O)O)NC(=O)[C@H](CCC(N)=O)NC(=O)[C@H](Cc2c[nH]c3ccccc23)NC(=O)[C@H](C(C)C)NC1=O

Each molecule was assayed against complement component C3 (human, in normal human plasma) (human, UniProt P01024 23-1663) (assay: cell-based or functional assay).

Row | Activity over Compstatin (inhibition of C3b/iC3b deposition on immunocomplexes in human plasma, compared by IC50) [fold over Compstatin] | Molecule
1 | 9 | B1
2 | 19 | B2
3 | 23 | Ac-ICV[1Nal]QDWGAHRCT-OH (disulfide 2-12 (inferred)) [Ac-4(1-Nal),9A-OH]
4 | 66 | Ac-ICV[2Nal]QDWGAHRCT-NH2 (disulfide 2-12 (inferred)) [Ac-4(2-Nal),9A]
5 | 55 | Ac-ICV[Igl]QDWGAHRCT-OH (disulfide 2-12 (inferred)) [Ac-4IgI,9A-OH]
6 | 55 | Ac-ICV[Bpa]QDWGAHRCT-OH (disulfide 2-12 (inferred)) [Ac-4(Bpa),9A-OH]
7 | 38 | B3
8 | 55 | Ac-ICV[Igl]QDWGAHRCT-NH2 (disulfide 2-12 (inferred)) [Ac-4IgI,9A]
9 | 39 | Ac-ICV[2Nal]QDWGAHRCT-OH (disulfide 2-12 (inferred)) [Ac-4(2-Nal),9A-OH]

Each molecule was assayed against complement component C3 (human, in normal human plasma) (human) (UniProt P01024) (assay: cell-based or functional assay).

Row | complement-inhibitory activity compared with Compstatin (fold over Compstatin) | Molecule
10 | 21 | Compstatin analog with Ile substituted for Thr at position 13 (peptide)
